Experimental data reported in PMC10769878 (2024).

T1: phi3T_93 (Bacillus subtilis phage phi3T)
T1 chain: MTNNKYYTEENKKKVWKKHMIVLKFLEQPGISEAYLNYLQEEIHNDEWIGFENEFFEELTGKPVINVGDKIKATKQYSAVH

T2: YosL^SPβ (Bacillus subtilis phage SPβ, UniProt O31877 1-117)
T2 chain: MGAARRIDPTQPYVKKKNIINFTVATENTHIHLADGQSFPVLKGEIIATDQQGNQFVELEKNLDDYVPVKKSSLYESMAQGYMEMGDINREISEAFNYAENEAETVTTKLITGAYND

T3: YosL^phi3T (Bacillus subtilis phage phi3T)
T3 chain: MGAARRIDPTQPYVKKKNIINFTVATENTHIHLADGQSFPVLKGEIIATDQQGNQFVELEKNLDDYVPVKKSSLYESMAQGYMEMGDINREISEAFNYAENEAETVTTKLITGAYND

B1: MazF (enzyme)
chain: MIVKRGDVYFADLSPVVGSEQGGVRPVLVIQNDIGNRFSPTAIVAAIAAQIQKAKLPTHVEIDAKRYGFERDSVILLEQIRTIDKQRLTDKITHLDDEMMDKVDEALQISLALIDF

What was measured:
Assay in all cases: BLI
[1] = molecular target: B1
[2] = molecular target: T1, phi3T_93
[3] = molecular target: B1
[4] = molecular target: T1, phi3T_93
[5] = molecular target: T2, YosL^SPβ
[6] = molecular target: T3, YosL^phi3T
[7] = molecular target: T2, YosL^SPβ
[8] = molecular target: T3, YosL^phi3T

Row | Binder | Kd [1] [nM] | Kd [2] [nM] | koff [3] [s⁻¹] | koff [4] [s⁻¹] | Kd [5] [nM] | Kd [6] [nM] | koff [7] [s⁻¹] | koff [8] [s⁻¹]
1 | AimX (natural protein) MKRALGKAISYEEMAKGYEEMAAINSIIAQEDNHLENEAEMIKTRYKTLAS | 81.3 | 184 | 0.0066 | 0.045 | – | – | – | –
2 | MazE (natural protein) MSESSARTEMKISLPENLVAELDGVAMREKRSRNELISQAVRAYVSERTTRHNRDLMRRGYMEMAKINLNISSEAHFAECEAETTVERLVSGG | 404 | 27.3 | 0.01 | 0.0013 | – | – | – | –
3 | B1 | – | – | – | – | 15 | 20.2 | 0.00085 | 0.00033
